{
  "source": "paper PMC3143262",
  "about": "(Journal of molecular biology, 2011)",
  "molecular_target": "the molecule itself",
  "assay": "SEC",
  "data": [
    {"protein": "CD147 Ig0 wild-type (domain or fragment, human, UniProt P35613 22-138, looked up) AAGFVQAPLSQQRWVGGSVELHCEAVGSPVPEIQWWFEGQGPNDTCSQLWDGARLDRVHIHATYHQHAASTISIDTLVEEDTGTYECRASNDPDRNHLTRAPRVKWVRAQAVVLVLE", "values": [
      {"measurement": "stoichiometry N", "value": 2}
    ]},
    {"protein": "CD147 Ig0 K126A (domain or fragment, human, UniProt P35613 22-138, looked up) AAGFVQAPLSQQRWVGGSVELHCEAVGSPVPEIQWWFEGQGPNDTCSQLWDGARLDRVHIHATYHQHAASTISIDTLVEEDTGTYECRASNDPDRNHLTRAPRVAWVRAQAVVLVLE", "values": [
      {"measurement": "stoichiometry N", "value": 2}
    ]},
    {"protein": "CD147 Ig0 C67M (domain or fragment, human, UniProt P35613 22-138, looked up, Selenomethionine labeled for the crystal structure) AAGFVQAPLSQQRWVGGSVELHCEAVGSPVPEIQWWFEGQGPNDTMSQLWDGARLDRVHIHATYHQHAASTISIDTLVEEDTGTYECRASNDPDRNHLTRAPRVKWVRAQAVVLVLE", "values": [
      {"measurement": "stoichiometry N", "value": 2}
    ]}
  ]
}
